From the DeepSol protein solubility set

Assay: soluble on expression in E. coli; label from the status in PepcDB or PDB records
With “MGSDKIHHHHHHARPLSDVLNDVAARFQVRLKYDVDTVGRVLPYADFRIRPYSLEETLTNVLSPFDYKFVKQSDKVYKLKPYEYARRTDADGEKMLAYLSGLYSDKSQWEQRREILRKEVRQRLGLDDMLGKTVKDAKPVLSKIRKFDGYTVQNFALETLPGLYVCGSVYAPRTKGKHALIICPNGHFGQGRYRKDQQQRMATLARMGAVCVDYDLYGWGESALQVGGKAHHTADAHTIQAMNGIWILDYMLANRKDIDPACIGVNGGSGGGTQTVLLTVLDDRFTAAAPVVSLASHFDGGCPCESGKPIQLAGGGTCNAELAALFAPRPMLVVSDGGDWTATVPRLEYPYLQRIYGFYGATDKVSNVHLPQERHDFGPNKRNAVYDFFIDVFGLDRNMLDESKVTIEPEDALKSFGEKGEKLPAGALRYKE” the “soluble on expression in E. coli” value was “not soluble”.
In the case of “MGSDKIHHHHHHARRNVLRKTWMNPENSEIIKDGRMKALFLVGMTDGDDSRMRKVVMEEARIYGDMVVVDLKDTYEELPFKSLTTLLYGTSKASEFKLIGKIDEDIMFFPDKILPLLEQNLIDPSSESIYGMLFAEGGYVYRDKEHRWFVPDSTYGCDMFPPYTGGLFYLVTQDAAKKILNATKHRIFIPIEDALINGILANDCKIPRIHLPEIYGDHHSLTDEDTRGVLAWHTGKNDQQFLDYFYRKLSESRLKKKILDEKNKHLFY”, the “soluble on expression in E. coli” value is reported as “not soluble”.
With “MGSDKIHHHHHHASPKKVAPEKKGVETINRATAEAHIGFLACDELEGREAGWKGGRIAGNYIISCLKQMGIKPLDGDYIQPFDVYHAERQVKGKRWQVHPDSIAELKKVVYQKLALRNILGKIEGKNPNEIVIIGAHYDHIGYDPMLEGDQIYNGADDNASGVQAVLQVARAFLATGEQPERTVIFAFWDGEEKGLLGSRYFAMNYPDIKKVKGYLNYDMIGRNNREDQPDYFVYFYTAAHQAFGDWLKKDIEDYRLQLSPDYRAWDNPVGGSDNGTFAKLGIPIIWYHTDAHPDYHLPGDETQKINWLKIVDITKASFLAMWKLANEKKY” the “soluble on expression in E. coli” value was “not soluble”.
For “MGSDKIHHHHHHATSKHVYGENENPYLKTNADAVVSTKAEFPISRLEAKTVKLTDYAEKFHTYLGMTVDETLAALSNGSVVFYPINISKNCWNRTAPTKGTNGWYYNTAGGVCDAASGIASIELDATKKELVLNVLETASVGTAISINVGFAINNGANFDDYVRFAFDVTVTDPGRIVVANTIPAGDYSAFSIEFADYQEVIESCLGLTLSEFITACKEPGGPIALYMVDSESGEWNTTSDYTAGGSGIGYWLTSNLKVTNWSDDGSTGSVLFVETQENGDMVNIGRNPASTSGSVFNVNFVYALKEDNSKFVEFIVKATLE”, the “soluble on expression in E. coli” value was “not soluble”.
With “MGSDKIHHHHHHCNNSNTKDNDKLFIGNGKFCQAKRLNGLGAIYDDDYIFFDCENQIYESYNYSNKKNDKKLNVNCRNSACSHNNDKCEAYVELGEYFVFNSKIYKYYNKSKVVSGENRLYGSIVEEESGKTVFKNSIPTDMSSELAIDDSEAILYVRVLSDDIIKVDGDRHAYLLDKNFNIIYCHYNIGKFPWGAILNGNYYYINDINEIVKVNLTTFESKSIASNGKAFMADNDENFIYYSNEFSELYKLSPDDESSIKIADNALFFSVQNKYIYASGGDNGNKIIYDKNGKIIADYSACVNMGADSAFQINDKIYTIFNGGVAYMDLDGKNYGEMMQ” the “soluble on expression in E. coli” value was “not soluble”.
In the case of “MGSDKIHHHHHHCWTYHYSEKPMNWENARKFCKQNYTDLVAIQNKREIEYLENTLPKSPYYYWIGIRKIGKMWTWVGTNKTLTKEAENWGAGEPNNKKSKEDCVEIYIKRERDSGKWNDDACHKRKAALCYTASCQPGSCNGRGECVETINNHTCICDAGYYGPQCQYVVQCEPLEAPELGTMDCIHPLGNFSFQSKCAFNCSEGRELLGTAETQCGASGNWSSPEPICQVVQCEPLEAPELGTMDCIHPLGNFSFQSKCAFNCSEGRELLGTAETQCGASGNWSSPEPICQETNRSFSKIKEGDYN”, the “soluble on expression in E. coli” value is reported as “not soluble”.
With “MGSDKIHHHHHHDEEPKSSLTLDTYYKTSADIIGNVNYLYRDGAPDKMGNMTGAYRGSSLSVMNMVTGYFVNEYEGQEVDCSYARQLTRQNFTQSCCNYLTNDTWKGCYKSINVANAVIKYVDGVEMDGQAQYKAEARFFRALNYFYLVKMFGDVPMITEPTEDATLVEYPARTAASEVYKTVIIPDLQFAVENLPDATFAGNSHRVTKYAADMLLADVYMRLGEYANAITPLKDVINSGKFALATNDNLAEGSAFNKLRTTDDLPEVIYAREYDAAISPNGNIPVHAFNLISPTFFANSSTGNKYSLWVNVYGVSERYLNVYGEKDLRAQMNQFFHRTYTHPVDGTTLDMKMLCNWYWYDETAILETGKGTKDWNFYRYAETLLSAAEAIAQSSGVNAEAAGYLAQVKARANMEGKDVSTIASELQRLGKQAFIEECWKERLREFPLEMKIWDDCVRTGKFPQISATNKGEVQFVDLIGATNGSGAKFKETDLYWPIPVNEIQRNPNLTQNEGYSAK” the “soluble on expression in E. coli” value was “not soluble”.
In the case of “MGSDKIHHHHHHDLDGAITTPAAVELALNGIYYSLPGNGFNVIFPTVSGSFKAGTMWRQEIVSAGNAVYYSERMLPTLSFSDATEWDADYAVIKNANFLETACNRMSDGEFSGNRRAEVLGEIAYLRALAYFNILVRYCEFWDMNSEYGVVMRNEAPSVSNALKARSSVADSYQYILDQLEIAIEKAPDWKKLSQASKEAAKALKARVLLYAGKYTEAVAAVNDAIDTNSPLPEANYGDVFDKFSTTKEILFARVFDQKDATNTSTRQQCYGNSPTKKQGYWGPTNEYVELVGDDPRADAIFSKVDSLMDSRSSAVAYNLKSVKKLLNDANDMPVIFSRVSELYLIKAEALYRSGASISEAYAPIRKLRERAGAEIILPANNEELETAIFNEWMLELSFENWHEWFAMIRFAGYTEKPDFTRLLALNKTLREALEKEYEKSEAQGDNYYQRIIDRRIDAIPSSEISSNLECKQNPGY”, the “soluble on expression in E. coli” value is reported as “not soluble”.
For “MGSDKIHHHHHHEDPRGKLTPENFFSTQDELNMSIYALYQKVNLSQVYTNMQLPQWQGDDITTNPGSNKQPAAEMDKFAAANNNKGVKDAWNMHYAIVKAANLIIQGASKTPTTQDEINIALGQAKFWRAYAYFTLVRLWGPLPMNLDNVNDDYTKPLSPVEEVYGHIVQDLTEAEAVLPTGYSGSPRFLNGVNVYVTRQAAKSTLAAVYMAMAGWPMNKTEYYAKAAEKAKEVIEGVNRGEYEYKLDKDYKDVYAMSNNYNNETVLGINYSPFVDWAQDSELTSCNQFESLGGWGDAWGEIRFWKEFPDGPRKDATYDPKIRLKDGTLVDWWELKEDGTPVVPEHHPMFSIFSVNWDPASKVNTSAPYDYTKPASQNMCNDHRHRIIRYSEVLLWYAEAKARTGQTDELAFKCLNDVRERAGLEPLTGLSADDLAEAAYKEHGWEVAGYWVALVTRRADQFRMNRLKDTFKERAENTAVEVADGILVKESVEYTNRTWSDNLMYLPYPDMDSQKNPNLVR”, the “soluble on expression in E. coli” value was “not soluble”.
For “MGSDKIHHHHHHEEPCPENGRVTFTVAQTRATQEGTFEKGNSIGVFAIEPKTGVYWATNNKYTYDGRAFKPATEEDNIIVTVGTDLDFYVYYPFKEGQTDITAISHAIGDQQEKSGWLSADFLTASYTDVIQDYTIPLHFEHRLSTVEVRVEGSDRVDGARMENVKYGSRFNLLTGKTVTDETRGSYAMYRYSSGNLTTVFRMTIPAQTLTTTSNYITLTGTPDMKLRGTSDMTTEPGRIHNYRIDYKIRITVLDYPQGGSTTGAGLYDMGSTCTVTASVNGGYEFAGWYEDGRIVSNDTRYSFEVLSDRTLEPRYRNYGGWSVTLTANPSVIGWQGGRSSLVAGASRGVFVNGVAENTQTAVPSLSGGAEGFLLSGNTVTVSENPSGSSRSCVFTASHGGSSATATITQEGSPVSYYFSYADGGTSHTEYPDDSSAGSFILDITSYKKTGNSTKALSWNASGDSWIHVNGSSVSYDENPAKERRTGLVTLKQDESGKTLSLKIVQPGKTSIDIEQ”, the “soluble on expression in E. coli” value was “not soluble”.
With “MGSDKIHHHHHHEETRTEVEKKNYMNNAEEAKDVLLGVYRTNTLDAMYGYYLSILFNLGTDISQVEGSGNENFRIIPTNSFPTTQSEVQQTWAALYTGIYRANDFLERISNKIGSYTTTDKKLATLYIAEARALRGMFYFELVRRFGNVVLMTSTQMSNQNPATYVQSAPEKVYEYIEDDLLYACDILPYATDDQYRESNDYRFSKGAALGLLTKVYATWAGYPVKDESKWEAAAKTARILVESGKHGLLKDYEQLWKNTCNGTWDPTESLIEISFYSPTVSGNSDPVGRIGKWNGVKTTAIAGVRGSCAANVKVVHTFVLDWREDVSDIRRDLSIANYQYTDTKKSLWVAGASDTDESAAEKDADPTKAQKNKQNYTPAKWDIQKYVTTNSFINNDKSNVNWYFLRYADVLLLYAEALNEWKHGPDAEAYNAINAVRRRGYGNPSNTSACDLPQGLDETSFREAVRKERSYELSFEGHRRQDLIRWGIYYKTVQATAKELGYWWEGTGSPNYSVATYTEEGKHELFPIPQRDMDLCIQFNQNPKW” the “soluble on expression in E. coli” value was “not soluble”.
For “MGSDKIHHHHHHEEYFNAIRTNIQLSGVDIKVVGITSVKSNEGKSTTAASLAIAYARSGYKTVLVDADIRNSVMPGFFKPMTKITGLTDYLAGTTDLSQGLCDTDIPNLTVIESGKVSPNPTALLQSKSFENLLATLRRYYDYVIVDCPPLGLVIDAAIIAQKCDAMVAVVEAGNVKCSSLKKVKEQLEQTGTPFLGVILNKYDIATEKYGEYGNYGKKA”, the “soluble on expression in E. coli” value was “not soluble”.
For “MGSDKIHHHHHHENLYFQGMRDHVEIGIGREARRTYSLDDISVVSSRRTRSSKDVDTTWHIDAYKFDLPFMNHPSDALASPEFVIEMGKQGGLGVINAEGLWGRHADLDEAIAKVIAAYEEGDQAAATRTLQELHAAPLDTELLSERIAQVRDSGEIVAVRVSPQNVREIAPIVIKAGADLLVIQGTLISAEHVNTGGEALNLKEFIGSLDVPVIAGGVNDYTTALHMMRTGAVGIIVGGGENTNSLALGMEVSMATAIADVAAARRDYLDETGGRYVHIIADGSIENSGDVVKAIACGADAVVLGSPLARAEEAAGKGYFWPAVAAHPRFPRGVVTESVDLDEAAPSLEQILHGPSTMPWGVENFEGGLKRALAKCGYTDLKSFQKVSLHVN”, the “soluble on expression in E. coli” value was “soluble”.
With “MGSDKIHHHHHHENLYFQGMTLSITSNFDAGAIDVVSCERADAIRLRVRGDNRSEFAQWFYFRLTGARGERCVMTFENANDCAYPAGWRDYRAVASYDRVNWFRVPTSYDGQMLTIDHTPEFDSIHYAYFEPYSEERHSEFLGAVQQMPQASVVELGRTVEGRPMSLVVLGTPDEAGAAKKKVWIIARQHPGESMAEWFIEGLVKRLVGWGDWSGDPVARKLYDHATFYIVPNMNPDGSVHGNLRTNAAGANLNREWMEPDAERSPEVLVVRDAIHAIGCDLFFDIHGDEDLPYVFAAGSEMLPGFTEQQRVEQSAFIDSFKRASPDFQDEHGYPPGKYREDAFKLASKYIGHRFGCLSLTLEMPFKDNANLPDEHIGWNGARSASLGAAMLGAILEHVRAFA” the “soluble on expression in E. coli” value was “soluble”.
In the case of “MGSDKIHHHHHHEQDNSVSEKQVDVVYNDPRDPFEGFNRAMWDLNYNVLDRYIYRPVAHTYKDYVPSPVKSGLHNFVRNLEEPNALVNNTLQGKFGWAANAGGRFVVNSTIGLLGVVDVADMMGMHRKQDDFNEVLGYYGVPNGPYFMAPFFGPYVTRELASDWVDGLYFPLSELTMWQSVVKWGIKSLHVRTEAIDQERLLDNALDPYTFVKDAYLQHMDYKVYDGNVPSNQEDDELLDEYMQELE”, the “soluble on expression in E. coli” value is reported as “not soluble”.
With “MGSDKIHHHHHHEQKTATSEMTDVSRLMPVKIKQTVKGQEEEMLIDTVKEANRKNIKFSIAGAQHSMGGHTYYEDGIVLDMTGYNKILSLDQEKKTIRVQSGATWNDIQKYVNPYGLAVKVMQSQNIFTIGGSLSANAHGRDIRYGSLIDTVKSFRLLKADGMIITVTPKDDLFTAVIGGYGLFGVILDVTLELTDDELYVMKTEKMNYSTYSDYFSKHVKGNPDVRMHLARISTAKKGFLKDMYVTNYVLANHQDQLSSYSELKEDEYTGATKFALGLSRRYEWGRNWLWDTQQSYFLSQNGTEISRNNVMRSESKFLEYENNDNTDVLQEYFVPVKEYGSYIDDLRQTLSDEDLNLLNITIRYVQKNEKADLSYAKDDMFSLVLLINEGFSKEDQADTARIIRRMTDVAIKHGGSYYLPYMTYQTKAQMRQAYPKSEAFFQKKRTYDPDERFMNYFYQRYK” the “soluble on expression in E. coli” value was “not soluble”.
